Experimental data published in patent US20200140551A1 (GlaxoSmithKline, published 2020).
Where a chain is given by its changes, count along the chain named.

Experiments:
human FcγR IIIa V158 = biological target: T1, human FcγR IIIa V158 (human, UniProt P08637 17-208); assay: affinity to human Fcγ receptors (Table 6; NB = no binding); method not described
T1 construct: allotype with Val at position 158 as printed

human FcγR IIa H131 = biological target: T2, human FcγR IIa H131 (human, UniProt P12318 36-218, limits assumed); assay: as above
T2 sequence (looked up): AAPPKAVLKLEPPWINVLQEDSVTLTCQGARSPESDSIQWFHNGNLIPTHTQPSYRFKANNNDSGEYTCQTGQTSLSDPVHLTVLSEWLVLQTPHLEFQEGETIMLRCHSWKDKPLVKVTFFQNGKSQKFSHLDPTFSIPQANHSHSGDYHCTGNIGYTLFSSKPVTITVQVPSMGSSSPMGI

human FcγR IIIa F158 = biological target: T3, human FcγR IIIa F158 (human, UniProt P08637 17-208); assay: as above
T3 construct: allotype with Phe at position 158 as printed
T3 sequence (P08637 17-208 limits assumed): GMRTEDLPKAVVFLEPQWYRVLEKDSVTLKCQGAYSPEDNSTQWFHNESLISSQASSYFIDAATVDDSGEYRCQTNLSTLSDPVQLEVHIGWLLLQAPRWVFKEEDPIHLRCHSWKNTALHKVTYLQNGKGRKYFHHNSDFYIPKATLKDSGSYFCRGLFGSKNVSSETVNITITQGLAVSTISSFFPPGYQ

human ICOS = biological target: T4, human ICOS (human, UniProt Q9Y6W8 21-140, limits assumed); assay: MSD competition assay: inhibition of ICOS-L binding to ICOS by titrated antibody, bar chart in raw luminescence units
T4 sequence: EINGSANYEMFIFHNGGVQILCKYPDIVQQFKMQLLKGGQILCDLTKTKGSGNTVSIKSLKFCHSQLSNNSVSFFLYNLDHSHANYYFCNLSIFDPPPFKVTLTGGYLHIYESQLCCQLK

Human ICOS -Fc = biological target: T5, Human ICOS -Fc (human; rabbit, UniProt Q9Y6W8 21-140); assay: SPR, BIAcore T200; antibody captured on anti-human IgG (CM5), ICOS (rabbit Fc) as analyte at 1-256 nM, 25°C, 1:1 model
T5 construct: analyte in the BIAcore T200 run; also called Human ICOS (rabbit Fc); not shown: rabbit Fc
T5 sequence: T4 sequence
Method: The binding kinetics affinity of the humanized H2L5 hIgG4PE antibody was determined used the BIAcore T200 Anti-human IgG on Fc2 of a CM5 chip Anti-ICOS H2L5 hIgG4PE captured on the surface. Anti-human IgG surface blocked with […] hIgG1 control to prevent non-specific binding of rabbit Fc. Human and cyno ICOS (rabbit Fc) passed over the captured antibodies at 256 nM, 64 nM, 16 nM, 4 nM and 1 nM. Buffer alone was used to double reference binding curves. MgCl₂ was used to regenerate surface. Run carried out at 25° C. Data fitted to 1:1 model using T200 evaluation software. Antibody concentration: 2.5 μg/mL
The ICOS binding data was fitted to a 1:1 kinetics model using the T200 data analysis software.

human FcγR I = biological target: T6, human FcγR I (human, UniProt P12314 16-288, limits assumed); assay: affinity to human Fcγ receptors; method not described
T6 construct: also called CD64
T6 sequence (P12314 16-288 limits assumed): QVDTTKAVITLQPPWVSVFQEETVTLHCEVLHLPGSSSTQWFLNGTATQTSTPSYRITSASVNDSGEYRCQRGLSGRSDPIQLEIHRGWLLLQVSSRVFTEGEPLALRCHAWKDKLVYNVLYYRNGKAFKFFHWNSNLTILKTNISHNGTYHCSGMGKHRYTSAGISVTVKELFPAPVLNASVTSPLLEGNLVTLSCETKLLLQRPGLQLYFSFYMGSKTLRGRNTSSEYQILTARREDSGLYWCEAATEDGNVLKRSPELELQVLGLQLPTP

human FcγR IIb = biological target: T7, human FcγR IIb (human, UniProt P31994 46-217, limits assumed); assay: as above
T7 sequence (looked up): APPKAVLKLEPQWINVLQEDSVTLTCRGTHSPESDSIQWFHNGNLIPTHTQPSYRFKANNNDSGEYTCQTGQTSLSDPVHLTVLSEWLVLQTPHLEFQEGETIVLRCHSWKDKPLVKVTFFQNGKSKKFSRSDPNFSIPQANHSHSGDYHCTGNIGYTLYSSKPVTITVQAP

human FcγR IIa R131 = biological target: T8, human FcγR IIa R131 (human, UniProt P12318 36-218, limits assumed); assay: as above
T8 sequence (looked up): T2 sequence (looked up) with H132R

[1] = biological target: T9, human ICOS on human T cells (human, UniProt Q9Y6W8 21-167); assay: flow cytometry, activated human CD4 T cells, FITC MFI, median of donors
T9 construct: endogenous receptor on primary cells; also called ICOS on CD4+ and CD8+ T cells of healthy human donors
T9 sequence: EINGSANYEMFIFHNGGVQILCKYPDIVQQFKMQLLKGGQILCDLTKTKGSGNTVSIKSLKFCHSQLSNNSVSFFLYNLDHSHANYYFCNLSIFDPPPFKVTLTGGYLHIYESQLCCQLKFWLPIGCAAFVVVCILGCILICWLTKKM
Method: (§1) Binding of H2L5 hIgG4PE was assessed in both naive and activated CD3+ T cells.
(§2) Either naive and/or activated CD3+ T cells were re-suspended in PBS with 0.1% BSA (FACS Buffer) containing Human FcR Blocking Solution at 2×10⁶ cells/mL (5 μl FcR Blocking Solution+[…] FACS Buffer per 1 mL). At a concentration of 2×10⁵ cells/well, 100 μl cells were placed into 2 mL 96 well Assay Blocks and incubated at room temperature for 15 minutes. During the incubation, a titration of the binding antibodies, anti-ICOS (H2L5 hIgG4PE) or IgG4 Isotype Control antibody was prepared as a 2× concentration. […] Following the binding incubation, cells were washed twice in 1 mL of FACS buffer, centrifuging at 400×g for 5 minutes at room temperature.
(§3) Data acquisition and compensation were performed on BD FACS instruments, LSR Fortessa X-20 or FACS Canto II using BD Diva (ver. 8.0) software. Data analysis employed Flow Jo software (ver.10.0.8r1). Results are reported as both MFI (Median Fluorescence Intensity) and Percent of cells positive for human IgG kappa light chain FITC staining out of the total live cells or appropriate parent population. EC50s were determined using Graphpad Prism 5 software (ver. 5.04) with non-linear regression of transformed data (X=(log(X)) using a variable slope with 4 parameters (log(Agonist) vs. response—Variable slope).

[2] = biological target: T9, human ICOS on human T cells; assay: flow cytometry, activated human CD4 T cells, FITC MFI, donor 1141F45
Method: as §1, §2, §3

[3] = biological target: T9, human ICOS on human T cells; assay: flow cytometry, activated human CD4 T cells, percent FITC positive, mean of donors
Method: as §1, §2, §3

T1 sequence (P08637 17-208 F176V limits assumed): as the sequence (P08637 17-208 limits assumed) above, with F160V counted along it

binding result (human FcγR IIIa V158): no binding | binding result (human FcγR IIa H131): no binding | binding result (human FcγR IIIa F158): no binding | IC50 (read off the curve) (human ICOS): ~2 µg/mL | Kd (Human ICOS -Fc): 1.34 nM | koff (Human ICOS -Fc): 0.000396 s⁻¹ | kon (Human ICOS -Fc): 297000 M⁻¹ s⁻¹ | Kd (human FcγR I): 645 nM | Kd (human FcγR IIb): 1470 nM | Kd (human FcγR IIa R131): 2500 nM | EC50 [1]: 1.04 µg/mL | EC50 [2]: 1.27 µg/mL | EC50 [3]: 0.763 µg/mL
B1: H2L5 hIgG4PE (antibody)
heavy: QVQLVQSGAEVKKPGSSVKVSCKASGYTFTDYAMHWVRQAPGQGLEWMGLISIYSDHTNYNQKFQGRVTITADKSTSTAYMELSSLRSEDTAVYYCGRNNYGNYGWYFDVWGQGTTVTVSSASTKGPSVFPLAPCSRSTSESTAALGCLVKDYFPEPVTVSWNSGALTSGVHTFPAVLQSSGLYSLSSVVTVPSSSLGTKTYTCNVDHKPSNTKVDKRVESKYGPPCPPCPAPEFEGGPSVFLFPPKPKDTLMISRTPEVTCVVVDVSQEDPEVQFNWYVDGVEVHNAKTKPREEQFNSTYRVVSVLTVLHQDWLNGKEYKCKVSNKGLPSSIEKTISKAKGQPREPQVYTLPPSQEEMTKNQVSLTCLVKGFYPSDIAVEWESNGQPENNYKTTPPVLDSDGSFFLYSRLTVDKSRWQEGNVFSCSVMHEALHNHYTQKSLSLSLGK
light: EIVLTQSPATLSLSPGERATLSCSASSSVSYMHWYQQKPGQAPRLLIYDTSKLASGIPARFSGSGSGTDYTLTISSLEPEDFAVYYCFQGSGYPYTFGQGTKLEIKRTVAAPSVFIFPPSDEQLKSGTASVVCLLNNFYPREAKVQWKVDNALQSGNSQESVTEQDSKDSTYSLSSTLTLSKADYEKHKVYACEVTHQGLSSPVTKSFNRGEC
notes: also called 422 H2L5 hIgG4PE; H2L5 IgG4PE; copies: 2 + 2
